Test results reported in the supplement of paper PMC10567573.
± gives the standard deviation.

Assay: protein stability index of a GFP-peptide fusion (GPS, HEK-293T) (PSI 1-6); higher = more stable
[1] = treatment: DMSO, c terminus: a fixed tail appended
[2] = treatment: MLN4924 1 uM, 8 h, c terminus: a fixed tail appended
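Further: 24-mer peptide tiles fused after GFP, lentivirally expressed, FACS-sorted into six equal bins by GFP/DsRed ratio, decoded by Illumina sequencing, PSI is the read-weighted mean bin number.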

DVEVPASVTGYSFASDGDSGTCSP [ADD1]
protein stability index [1]: 5.16 ± 0.19
protein stability index [2]: 5.29 ± 0.11

GKKQVPCFASMLTKKLHFFPKSN [CASP6]
protein stability index (treatment: DMSO, c terminus: native): 2.82 ± 0.27
protein stability index (treatment: MLN4924 1 uM, 8 h, c terminus: native): 3.51 ± 0.69

QGRFCTIFRSYSRGAQGVILVYDI [RAB40A]
protein stability index [1]: 3.15 ± 0.35
protein stability index [2]: 2.99 ± 0.43

KHPRQTLEVINLLRKHRELCDVVL [KLHL20]
protein stability index [1]: 2.34 ± 0.43
protein stability index [2]: 2.17 ± 0.25

LEEQLQGWGEVMLMADKVLRWERA [ARL6IP1]
protein stability index [1]: 2.49 ± 0.31
protein stability index [2]: 2.49 ± 0.27

SKAHLEKVRSYVKRALAEGAQIWC [ALDH8A1]
protein stability index [1]: 3.23 ± 0.73
protein stability index [2]: 3.19 ± 0.56

MENKSLESSQTDLKLVAHPRAKSK [ZBED1]
protein stability index [1]: 5.26 ± 0.29
protein stability index [2]: 5.27 ± 0.25

LRIPEGPIDQGPAIGRVRVLEEQL [FUT8]
protein stability index [1]: 3.69 ± 0.37
protein stability index [2]: 3.85 ± 0.19

LTFLTKQEILLAHRRFCELLPQEQ [CIB1]
protein stability index [1]: 2.4 ± 0.44
protein stability index [2]: 2.55 ± 0.19

KTAGKENHFDMHRVGKWHQDFPVK [ZNF75A]
protein stability index [1]: 3.09 ± 0.36
protein stability index [2]: 3.38 ± 0.13

MGGTQQQFVEGVRMEEIVEGCTGA [CTNNB1]
protein stability index [1]: 5.09 ± 0.15
protein stability index [2]: 5.1 ± 0.072

SLSAGEKPGFLAPRDLPKHTPLIS [RASAL3]
protein stability index [1]: 3.56 ± 0.23
protein stability index [2]: 3.65 ± 0.32

LLRQQLMRAQAQEQERRERREQAA [TFE3]
protein stability index [1]: 3.82 ± 0.27
protein stability index [2]: 4.2 ± 0.15

MSPYLVPDTQALCHHLPVIRQLAT [SMG5]
protein stability index [1]: 2.3 ± 0.28
protein stability index [2]: 2.52 ± 0.22

CSMSATFTLNFFRSGIQFGSWGSF [CLCN6]
protein stability index [1]: 3.01 ± 0.57
protein stability index [2]: 2.75 ± 0.14

YLIRVDGKGSIKELFPTGKQLEPL [VPS39]
protein stability index [1]: 2.49 ± 0.23
protein stability index [2]: 2.21 ± 0.23

SDPQTVAGAFGYFQQDTKGLVDFR [LPCAT4]
protein stability index [1]: 3.68 ± 0.41
protein stability index [2]: 3.71 ± 0.29

AKKFMWRDSFMRHRGHCERRHRLG [ZBTB22]
protein stability index [1]: 2.94 ± 0.23
protein stability index [2]: 3.1 ± 0.41

SFTLADVSLAVTLHRLKFLGFARR [GDAP1]
protein stability index [1]: 2.5 ± 0.64
protein stability index [2]: 2.33 ± 0.33

STDDFFFREDGAYEFNPDFLEEAH [N4BP2L1]
protein stability index [1]: 4.99 ± 0.34
protein stability index [2]: 4.89 ± 0.17

LSQALNGLSDRAKEAKEFLVQLRN [TRIM9]
protein stability index [1]: 3.29 ± 0.41
protein stability index [2]: 3.26 ± 0.32

QAAPGALPVSSPEPPPALPPAADA [TRIM55]
protein stability index [1]: 5.46 ± 0.15
protein stability index [2]: 5.37 ± 0.28

EHDAWFIFFMAAFAFSNGYLASLC [SLC29A1]
protein stability index [1]: 3.19 ± 0.5
protein stability index [2]: 3.25 ± 0.48

LKENNFQPYPLPHVRHMAYQLCHA [CLK3]
protein stability index [1]: 2.46 ± 0.12
protein stability index [2]: 2.21 ± 0.26

SLSHTELEAAEVILEHAHRGEQTT [FCHSD1]
protein stability index [1]: 5.22 ± 0.26
protein stability index [2]: 5.28 ± 0.11

ASDPLLSSVSPAVSKASSRRSSFS [TFE3]
protein stability index [1]: 4.69 ± 0.15
protein stability index [2]: 4.79 ± 0.25

PPKIRLKPHRLGDSEHEPVYRAEL [PWWP2B]
protein stability index [1]: 4.02 ± 0.19
protein stability index [2]: 4.09 ± 0.095

LTIMPYNSAHHCVVEVENFLFVLG [KLHL14]
protein stability index [1]: 3.26 ± 0.64
protein stability index [2]: 3.02 ± 0.32

TSECPSDKDKSPESHKAKNESWIK [C10orf62]
protein stability index [1]: 3.58 ± 0.65
protein stability index [2]: 4.18 ± 0.7

PRGRAHLLPNPYQQDFLGLPEELR [C22orf15]
protein stability index [1]: 3.92 ± 0.24
protein stability index [2]: 4.31 ± 0.11

ISEEGHHYLIFDLVTGGELFEDIV [CAMK2A]
protein stability index [1]: 2.47 ± 0.62
protein stability index [2]: 2.13 ± 0.29

DDRNTACHHGLVADSLQASMEKDA [DLC1]
protein stability index [1]: 5.15 ± 0.13
protein stability index [2]: 5.16 ± 0.16

ANLPVPTIAAIDGLALGGGLELAL [AUH]
protein stability index [1]: 2.35 ± 0.37
protein stability index [2]: 2.02 ± 0.55

AINRDTAFPGASHESSGNPPLRVI [RHOBTB3]
protein stability index [1]: 3.44 ± 0.049
protein stability index [2]: 3.47 ± 0.29

EEEVVEGEKEVEALKKSADWVSDW [BNIP3L]
protein stability index [1]: 5.08 ± 0.25
protein stability index [2]: 5.36 ± 0.34

RSQSSIVPEEEQAANKGEEKKDDE [SMARCE1]
protein stability index [1]: 5.63 ± 0.25
protein stability index [2]: 5.68 ± 0.14

FAWPFYQPVDAIKLNLPDYHKIIK [BRD3]
protein stability index [1]: 2.24 ± 0.67
protein stability index [2]: 2.19 ± 0.25

IEQDAVVPSEWLSSVYKQQWFAML [GMCL1]
protein stability index [1]: 2.26 ± 0.098
protein stability index [2]: 2.78 ± 0.3

PMDSTMDDAVAGDFALINKLDIQC [ATE1]
protein stability index [1]: 4.4 ± 0.26
protein stability index [2]: 4.29 ± 0.24

FISRTSIPNAASEEGDEDDWASNK [WEE1]
protein stability index [1]: 4.3 ± 0.32
protein stability index [2]: 4.73 ± 0.31

NNILISAVLPTAFRVAKKRAPKVL [GDAP1]
protein stability index [1]: 2.34 ± 0.24
protein stability index [2]: 2.48 ± 0.34

DYKLLKPSLAVNLADPYRSLKAPG [JUNB]
protein stability index [1]: 3.41 ± 0.35
protein stability index [2]: 3.35 ± 0.14

ALKKRSGKKDKHSQSPRAAGPREG [PBXIP1]
protein stability index [1]: 4.64 ± 0.14
protein stability index [2]: 4.83 ± 0.34

YFHINQTLREAHFHSLQHRGRPLT [FAM104A]
protein stability index [1]: 2.96 ± 0.15
protein stability index [2]: 3.21 ± 0.31

QEPPTTDSQEAQSPGHSSAGQEGE [TOR1AIP2]
protein stability index [1]: 5.67 ± 0.25
protein stability index [2]: 5.56 ± 0.26

DETHPYTVTSVSCCHGNTLLAVRS [NEK8]
protein stability index [1]: 2.47 ± 0.12
protein stability index [2]: 2.67 ± 0.076

PGGGRGALLDQIRQGIQLNKTPGA [WAS]
protein stability index [1]: 5.3 ± 0.1
protein stability index [2]: 4.99 ± 0.47

MEKSSFTEYIESPDVENEVKRLLR [TAF7L]
protein stability index [1]: 3.79 ± 0.28
protein stability index [2]: 3.83 ± 0.23

RLCFFPFVENGHSESSGQTHLEGD [CFHR2]
protein stability index [1]: 4.01 ± 0.099
protein stability index [2]: 4.37 ± 0.15

GDVHTVRKMLEQGYSPNGRDANGW [ASB7]
protein stability index [1]: 3.51 ± 0.23
protein stability index [2]: 3.71 ± 0.24

MQAAEVFSQKHFPEVVQHEEFILL [KLHL12]
protein stability index [1]: 2.17 ± 0.48
protein stability index [2]: 2.44 ± 0.73

KTTLARQLQHDFPRALIFSTDDFF [N4BP2L1]
protein stability index [1]: 2.41 ± 0.28
protein stability index [2]: 2.53 ± 0.25

FLTILPEELQSWVRGHHPKSGEEA [ZNF232]
protein stability index [1]: 3.7 ± 0.18
protein stability index [2]: 3.56 ± 0.35

LSKEYWDCLEGKKSKHAPRGTHLW [ELF3]
protein stability index [1]: 2.82 ± 0.45
protein stability index [2]: 3.17 ± 0.24

LEAHCVEFLTKHLRADNAFMLLTQ [BTBD1]
protein stability index [1]: 2.55 ± 0.76
protein stability index [2]: 2.81 ± 0.47

YGSDQQHHLGSGSGAGGTGGPAGQ [MYOZ1]
protein stability index [1]: 4.93 ± 0.23
protein stability index [2]: 4.77 ± 0.28

RKVAGMAKPNMIISVNGDVITIKS [FABP4]
protein stability index [1]: 2.37 ± 0.66
protein stability index [2]: 2.43 ± 0.26

YVHWPYCEKRCSYCNFNKYIPRRL [RSAD1]
protein stability index [1]: 2.62 ± 0.51
protein stability index [2]: 2.45 ± 0.34

YSDNPCSCSQSHCCSRYLCMGAMS [SPRY1]
protein stability index [1]: 2.62 ± 0.22
protein stability index [2]: 2.71 ± 0.35

PFNKVQSARFWIPGEPNNAGNNEH [CD207]
protein stability index [1]: 3.92 ± 0.35
protein stability index [2]: 3.93 ± 0.17

YQCPDQMARNPAAIDMFIIGATFT [FBXO3]
protein stability index [1]: 3.02 ± 0.48
protein stability index [2]: 2.51 ± 0.77

CIQQILEAVLHCHQMGVVHRDLKP [CAMK2A]
protein stability index [1]: 2.75 ± 0.32
protein stability index [2]: 3.03 ± 0.36

NPEVGIFVSIAQSEQESLLQQAQA [SMG5]
protein stability index [1]: 4.09 ± 0.3
protein stability index [2]: 4.23 ± 0.24

LVGLTVIGAFLNLVVLRFLTMNSE [KCNK9]
protein stability index [1]: 3.42 ± 0.46
protein stability index [2]: 3.42 ± 0.25

AEDDHMLIQNEYRNGGSLADAISE [WEE1]
protein stability index [1]: 5.06 ± 0.27
protein stability index [2]: 4.9 ± 0.43

CIMDDAINILQNEKSHQVLAQLLD [INTS4]
protein stability index [1]: 2.18 ± 0.21
protein stability index [2]: 2.37 ± 0.23

NCSIGPNVSLGPGVVVEDGVCIRR [GMPPB]
protein stability index [1]: 4.29 ± 0.3
protein stability index [2]: 4.393 ± 0.043

VFGRLRDENGRPYSPSQYALQYAG [NFE2L1]
protein stability index [1]: 2.86 ± 0.45
protein stability index [2]: 2.65 ± 0.36

DLYALKSVKIPVRNHGILMETHKE [LYSMD4]
protein stability index [1]: 3.02 ± 0.14
protein stability index [2]: 3.25 ± 0.12

PLQFLGLFENSLCRLTHIPAYKVS [ZER1]
protein stability index [1]: 2.02 ± 0.55
protein stability index [2]: 2.08 ± 0.5

ACGGTRDQLFMQEKARQLLGRLKP [MYBL2]
protein stability index [1]: 3.39 ± 0.54
protein stability index [2]: 3.29 ± 0.38

QQLYYTEADYEDDSKIAFLMQLQD [IQUB]
protein stability index [1]: 3.45 ± 0.54
protein stability index [2]: 3.48 ± 0.51

HRMVVKIGDFGISKILSSKSKAYT [NEK8]
protein stability index [1]: 2.33 ± 0.084
protein stability index [2]: 2.14 ± 0.12

DYWLRRFEAEPLPENTNRQLLLQF [PI4K2A]
protein stability index [1]: 2.41 ± 0.21
protein stability index [2]: 2.35 ± 0.27

STCHAYSNTRDRYGRSWESYSSCG [RBMY1A1]
protein stability index [1]: 2.29 ± 0.16
protein stability index [2]: 2.47 ± 0.37

EPHGKMFNEQTWEVSQQDPSHGEV [ZSCAN9]
protein stability index [1]: 5.06 ± 0.16
protein stability index [2]: 5.04 ± 0.18

KAPKKDVIKMLVNDNKVLRYLAVL [EFHC1]
protein stability index [1]: 2.65 ± 0.49
protein stability index [2]: 2.44 ± 0.58

NQRIIHRDMKPDNILLDEHDTWLS [STK32A]
protein stability index [1]: 3.71 ± 0.33
protein stability index [2]: 3.63 ± 0.27

EKHCEFKQLALDHFKKTKKMGGKD [ATL3]
protein stability index [1]: 4.64 ± 0.14
protein stability index [2]: 4.57 ± 0.39

DPQILQMLKEEHQIILENQKNFGL [RAD54B]
protein stability index [1]: 3.25 ± 0.3
protein stability index [2]: 3.812 ± 0.008

HQGHSDQHHHHHHHHHGRDFLLRA [RHOBTB2]
protein stability index [1]: 3.45 ± 0.11
protein stability index [2]: 3.65 ± 0.24

EHSWIKAIRRRNVRGEDSGRKPER [DAPK3]
protein stability index [1]: 3.62 ± 1.7
protein stability index [2]: 4.07 ± 0.23

QSVSYSKLLSVIVWMLMLLLAVPN [P2RY14]
protein stability index [1]: 3.24 ± 0.27
protein stability index [2]: 3.17 ± 0.49

KKRKVDGLSTEAEQPFIPVEVLVD [PRAME]
protein stability index [1]: 3.8 ± 0.52
protein stability index [2]: 4.04 ± 0.27

DHEDNDKMNDSEGMDPERLKAFNM [NOL4L]
protein stability index [1]: 5.46 ± 0.12
protein stability index [2]: 5.34 ± 0.34

FGPDSKSSALACTLPTLPAKVYVG [NCF4]
protein stability index [1]: 2.74 ± 0.12
protein stability index [2]: 3.03 ± 0.43

FSGRMEVLTDSEGWILIDRCGKHF [KCTD10]
protein stability index [1]: 2.57 ± 0.28
protein stability index [2]: 2.77 ± 0.4

AAVESVLHLGLPWRMLRPQLVNSS [PPEF2]
protein stability index [1]: 2.74 ± 0.81
protein stability index [2]: 2.46 ± 0.41

IVIADVKLVADFQRYILYWRKRFT [ZNF277]
protein stability index [1]: 2.48 ± 0.57
protein stability index [2]: 2.48 ± 0.46
